The nature of series [1]: Hydrolysis (release kinetics) of dextran ester prodrugs in aqueous buffer solution. It counts as physicochemical. To be noted: for t(50%) at pH 7.40 and 37°C: 0.05 M phosphate buffer pH 7.40, 37°C; for t(10%) / Arrhenius equation: pH 4.48; for t(10%): time for 10% degradation, calculated from Arrhenius equations; for Ea: hydrolysis at pH 4.48, from slopes of Arrhenius type plots; for Arrhenius equation: kobs in hours⁻¹, T in degrees Kelvin; for kobs: ionic strength 0.5.
Protocol: Release kinetics of the parent drug compounds from the corresponding dextran prodrugs of this invention was carried out in aqueous buffer solution over the pH range 4.5 - 10.0 at 37°C (and in order to determine the activation energies, at pH 4.5, from Arrhenius type plots at 50, 60, 65 and 70°C). […] The 1. order rate constants were derived from the slope of linear plots of log(B∞ -Bt) versus time and for the slow reactions by employing the initial rate method (e.g. (dBt/dt)i = kobsAo), where B∞ and Bt refer to the concentrations of regenerated parent drug at infinity and time t, respectively. (dBt/dt)i repre­sents the initial rate of parent drug formation, whereas kobs and Ao are the pseudo-first-order rate constant and the initial dextran prodrug concentration, respectively. For the fast reactions the initial concentration of the conjugates was in the range 5 - 25 mg/10 ml and for the slow reactions in the range 50 - 250 mg/10 ml. At various times an aliquot of the solutions was withdrawn and analyzed by HPLC for liberated free drug and in some cases for intact dextran prodrug.
A HPLC method was used for the determination of the generated free NSAIDs (the HPLC procedure was further used for determination of the degree of substitution of the polysaccharide prodrugs). […] The flow rate was 1.0 ml/min and the column effluent was monitored at 266 nm. […] Quantitation of the compounds was done by measurements of peak heights in relation to those of standards chromatographed under identical conditions.

Series [2] in a line: Water solubility of the conjugates (25°C).
For series [3] the following is noted: pigs, from a previous study (8), cited from earlier work.

Where two headings read alike, the source gives them in different places.

As for “O-[±)-2-(3-phenoxyphenol)propionyl]-dextran T-70 [Example 56]”, in series [1], the “t(50%) at pH 7.40 and 37°C” value amounted to 130 hours; the Ea amounted to 25.41 kcal/mol; the Arrhenius equation is 1n kobs = 30.6 - 12,790/T (n = 5, r = 0.99). For the same compound, the “t(10%)” value in series [1] (5°C) is on record as 59.7 years. Also, the “t(10%)” value in series [1] (25°C) is on record as 2.72 years. Besides, in series [1] (pH 10.00, 37°C), the kobs turned out to be 1.67 h⁻¹. The water-solubility in series [2] is greater than 20 % w/v.
As for `COc1ccc2cc([C@H](C)C(=O)O)ccc2c1` [NAPROXEN, (+)-2-(6-methoxy-2-napthyl)propionic acid], the β in series [3] (i.v., 3.6 mg naproxen equivalents) was 0.048 h⁻¹; in series [3] (naproxen in plasma, p.o.) it was 0.049 h⁻¹.
As for “O-[±)-2-(3-phenoxyphenol)propionyl]-dextran T-500 [Example 58]”, the “t(50%) at pH 7.40 and 37°C” value in series [1] is on record as 131 hours. This compound yielded a water-solubility in series [2] greater than 20 % w/v.
The compound “O-[3-(11β,17-dihydroxy-6α-methylpregna-1,4-diene-3,20-dione-21-oxycarbonyl)propionyl]-dextran T-500 [Example 48]” showed a water-solubility in series [2] greater than 20 % w/v.
Regarding “O-[2-(4-Isobutylphenyl)propionyl]-dextran T-10 [Example 54]”, the “t(50%) at pH 7.40 and 37°C” value in series [1] was determined as 140 hours. This compound also displayed a water-solubility in series [2] greater than 20 % w/v.
With “O-[[2-(2,6-dichloroanilino)phenyl]acetyl]-dextran T-10 [Example 60]”, the water-solubility in series [2] is given as greater than 20 % w/v.
On to “O-[3-(11β,17-dihydroxy-6α-methylpregna-1,4-diene-3,20-dione-21-oxycarbonyl)propionyl]-dextran T-70 [Example 46]”, for which the water-solubility in series [2] was greater than 20 % w/v.
As for “O-[[2-(2,6-dichloroanilino)phenyl]acetyl]-dextran T-70 [Example 59]”, the “t(10%)” value in series [1] (5°C) is 21.3 years. In addition, the “t(10%)” value in series [1] (25°C) is 0.65 years. Moreover, in series [1], the Ea was found to be 28.73 kcal/mol and the Arrhenius equation was 1n kobs = 37.6 - 14,450/T (n = 5, r = 0.99). Also, the kobs in series [1] (pH 9.54, 37°C) is 3.01 h⁻¹. The same compound displayed a water-solubility in series [2] greater than 20 % w/v.
In turn, “O-[[2-(2,6-dichloroanilino)phenyl]acetyl]-dextran T-500 [Example 61]” came in with a water-solubility in series [2] greater than 20 % w/v.
As to “O-[3-(11β,17-dihydroxy-pregn-4-ene-3,20-dione-21-oxycarbonyl)propionyl]-dextran T-70 [Example 49]”, in series [2], the water-solubility was greater than 20 % w/v.
On to “O-[2-(4-Isobutylphenyl)propionyl]-dextran T-70 [Example 53]”, for which, in series [1], the “t(50%) at pH 7.40 and 37°C” value was found to be 144 hours; the Ea turned out to be 24.14 kcal/mol; the Arrhenius equation is 1n kobs =28.9 - 12,140/T (n = 5, r = 0.97). Moreover, the “t(10%)” value in series [1] (5°C) was 31.5 years. For the same compound, the “t(10%)” value in series [1] (25°C) is reported as 1.68 years.
Take “O-[±)-2-(3-phenoxyphenol)propionyl]-dextran T-10 [Example 57]”: the “t(50%) at pH 7.40 and 37°C” value in series [1] is 128 hours. In series [2], this compound displayed a water-solubility greater than 20 % w/v.
Turning to “O-[2-(3-Benzoylphenyl)propionyl]-dextran T-500 [Example 52]”, the “t(50%) at pH 7.40 and 37°C” value in series [1] is reported as 91 hours. The compound further had a water-solubility in series [2] greater than 20 % w/v.
With “O-[3-(11β,17-dihydroxy-6α-methylpregna-1,4-diene-3,20-dione-21-oxycarbonyl)propionyl]-dextran T-40 [Example 47]”, the water-solubility in series [2] was greater than 20 % w/v.
With “O-[2-(4-Isobutylphenyl)propionyl]-dextran T-500 [Example 55]”, the “t(50%) at pH 7.40 and 37°C” value in series [1] worked out at 141 hours. In series [2], this compound showed a water-solubility greater than 20 % w/v.
As to “O-[2-(3-Benzoylphenyl)propionyl]-dextran T-10 [Example 51]”, the “t(50%) at pH 7.40 and 37°C” value in series [1] worked out at 93 hours. The compound further had a water-solubility in series [2] greater than 20 % w/v.
